Patent US20100197009A1

Legend:
[1] = molecular target: biotinylated HLA-A2-AviTag/MelanApeptide/β2 microglobulin complex; test: flow cytometry of streptavidin M280 beads coated with 0.015 µg of the biotinylated complex, stained with FITC anti-HLA ABC
[2] = molecular target: biotinylated HLA-A2-AviTag/MelanApeptide/β2 microglobulin complex; test: flow cytometry of streptavidin M280 beads saturated with the biotinylated complex, stained with anti-HLA-ABC, legend of FIG. 4
[3] = molecular target: biotinylated HLA-A2-AviTag/MelanApeptide/β2 microglobulin complex; test: flow cytometry of streptavidin M280 beads coated with the biotinylated complex (saturating, 2 µg), stained with FITC anti-HLA ABC

MFI [1]: 24.5 MFI | MFI [2]: 305 MFI | MFI [3]: 300 MFI
Substance: streptavidin on M280 beads (Dynal) (from UniProt P22629 37-163)
